This passage reports koff, Kd and kon results from patent US20090022728A1 (RINAT NEUROSCIENCE, published 2009).

B1: 9TL variant M24 Fab (Fab, V domains shown)
VH: QVQLVQSGAEVKKPGASVKVSCKASGYYTEAYYIHWVRQAPGQGLEWMGRIDPATGNTKYAPRLQDRVTMTRDTSTSTVYMELSSLRSEDTAVYYCASLYSLPVYWGQGTTVTVSS
VL: DVVMTQSPLSLPVTLGQPASISCKSSQSLLYSDAKTYLNWFQQRPGQSPRRLIYQISRLDPGVPDRFSGSGSGTDFTLKISRVEAEDVGVYYCLQGTHYPHLFGQGTRLEIKR
notes: Fab; human IgG2 CH1 and kappa CL
B2: 9TL variant M26 Fab (Fab, V domains shown)
VH: B1 VH
VL: B1 VL with H101A
notes: as for B1
B3: 9TL variant M47 Fab (Fab, V domains shown)
VH: B1 VH with V104Q
VL: B1 VL with H101V
notes: as for B1
B4: 9TL variant M40 Fab (Fab, V domains shown)
VH: B1 VH with L102T
VL: B1 VL with H101V
notes: as for B1
B5: 9TL variant M30 Fab (Fab, V domains shown)
VH: B1 VH
VL: B1 VL with H101V, L102V
notes: as for B1
B6: 9TL variant M50 Fab (Fab, V domains shown)
VH: B1 VH with V104F
VL: B1 VL with H101V
notes: as for B1
B7: 9TL variant M43 Fab (Fab, V domains shown)
VH: B1 VH with V104I
VL: B1 VL with H101V
notes: as for B1
B8: 9TL variant M49 Fab (Fab, V domains shown)
VH: B1 VH with V104N
VL: B1 VL with H101V
notes: as for B1
B9: 9TL variant M54 Fab (Fab, V domains shown)
VH: B1 VH with Y105S
VL: B1 VL with H101V
notes: as for B1
B10: 9TL variant M27 Fab (Fab, V domains shown)
VH: B1 VH
VL: B1 VL with H101E
notes: as for B1
B11: 9TL variant M48 Fab (Fab, V domains shown)
VH: B1 VH with V104S
VL: B1 VL with H101V
notes: as for B1
B12: 9TL variant M38 Fab (Fab, V domains shown)
VH: B1 VH with L102V
VL: B1 VL with H101V
notes: as for B1
B13: 9TL variant M31 Fab (Fab, V domains shown)
VH: B1 VH with L99V
VL: B1 VL with H101V
notes: as for B1
B14: 9TL variant M37 Fab (Fab, V domains shown)
VH: B1 VH with L102A
VL: B1 VL with H101V
notes: as for B1
B15: 9TL variant M56 Fab (Fab, V domains shown)
VH: B1 VH with Y105V
VL: B1 VL with H101V
notes: as for B1
B16: 9TL variant M25 Fab (Fab, V domains shown)
VH: B1 VH
VL: B1 VL with H101T
notes: as for B1
B17: 9TL variant M51 Fab (Fab, V domains shown)
VH: B1 VH with Y105H
VL: B1 VL with H101V
notes: as for B1
B18: 9TL variant M53 Fab (Fab, V domains shown)
VH: B1 VH with Y105W
VL: B1 VL with H101V
notes: as for B1
B19: 9TL variant M42 Fab (Fab, V domains shown)
VH: B1 VH with L102E
VL: B1 VL with H101V
notes: as for B1
B20: 9TL variant M39 Fab (Fab, V domains shown)
VH: B1 VH with L102S
VL: B1 VL with H101V
notes: as for B1
B21: 9TL variant M29 Fab (Fab, V domains shown)
VH: B1 VH
VL: B1 VL with H101V, L102S
notes: as for B1
B22: 9TL variant M36 Fab (Fab, V domains shown)
VH: B1 VH with L102R
VL: B1 VL with H101V
notes: as for B1
B23: 9TL variant M35 Fab (Fab, V domains shown)
VH: B1 VH with S101G
VL: B1 VL with H101V
notes: as for B1
B24: 9TL variant M28 Fab (Fab, V domains shown)
VH: B1 VH
VL: B1 VL with H101M
notes: as for B1
B25: 9TL variant M55 Fab (Fab, V domains shown)
VH: B1 VH with Y105I
VL: B1 VL with H101V
notes: as for B1
B26: 9TL variant M52 Fab (Fab, V domains shown)
VH: B1 VH with Y105F
VL: B1 VL with H101V
notes: as for B1
B27: 9TL variant M32 Fab (Fab, V domains shown)
VH: B1 VH with L99I
VL: B1 VL with H101V
notes: as for B1
B28: 9TL variant M41 Fab (Fab, V domains shown)
VH: B1 VH with L102Q
VL: B1 VL with H101V
notes: as for B1
B29: 9TL variant M46 Fab (Fab, V domains shown)
VH: B1 VH with V104C
VL: B1 VL with H101V
notes: as for B1

Residue numbers refer to the chain shown, from its start.

One may read the koff as a measure of how fast the partners let go of each other. For orientation: Kd means the free concentration of one partner at which half of the binding sites on the other are occupied at equilibrium, for simple one-to-one binding. Lower therefore signals a tighter complex. In general, kon refers to a measure of how fast the partners come together. Low values mean slower complex formation, high ones faster complex formation.

The target in one assay is T1, biotinylated Aβ1-40 peptide (biotinylated (N-biotinylated in Example 7)).
T1 construct: captured on streptavidin (SA) chip; also called Biotinylated Aβ peptide 1-40; Aβ1-40 on SA chip
T1 sequence (peptide, as listed by the source): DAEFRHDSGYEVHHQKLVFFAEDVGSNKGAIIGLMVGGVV
The experiment in a line: SPR, Fab over Aβ1-40 on SA chip. The protocol: (§1) Affinities of 9TL Fab fragment and its variants Fab fragments were determined by Surface Plasmon Resonance (SPR) system (BIAcore 3000™, BIAcore, Inc., Piscaway, N.J.). SA chips (streptavidin) were used according to the supplier's instructions. Biotinylated Aβ peptide 1-40 was diluted into HBS-EP (10 mM HEPES pH 7.4, 150 mM NaCl, 3 mM EDTA, 0.005% P20) and injected over the chip at a concentration of 0.005 mg/mL. Using variable flow time across the individual chip channels, two ranges of antigen density were achieved: 10-200 response units (RU) for detailed kinetic studies and 500-600 RU for concentration studies and screening. […] HBS-EP buffer was used as running buffer for all the BIAcore assays. […] The concentrations of the Fab proteins were determined by ELISA and/or SDS-PAGE electrophoresis using a standard Fab of known concentration (determined by amino acid analysis). Kinetic association rates (kₒₙ) and dissociation rates (koff) were obtained simultaneously by fitting the data to a 1:1 Langmuir binding model (Karlsson, R. Roos, H. Fagerstam, L. Petersson, B. (1994). Methods Enzymology 6. 99-110) using the BIAevaluation program. Equilibrium dissociation constant (KD) values were calculated as koff/kₒₙ.
(§2) All amino acid substitutions of the variants shown in Table 3 are described relative to the sequence of 9TL. KD and other kinetic parameters were determined by BIAcore analysis described above with Aβ₁₋₄₀ immobilized on SA chip.
In general terms: SPR reads the build-up and loss of mass on a sensor chip optically.
Molecule B1 came in with a koff of 0.006 s⁻¹.
The same measure, in the same setting: to B2 belongs 0.009 s⁻¹; to B3, 0.02 s⁻¹; to B4, 0.0045 s⁻¹.
Molecule B5 returned an off-rate (koff) of 0.00068 s⁻¹.
The same measure, in the same setting: to B6 belongs 0.027 s⁻¹; to B7, 0.0003 s⁻¹; to B8, 0.026 s⁻¹.
On the same count and under the same terms, the result for B9 reads 0.0024 s⁻¹.
The same measure, in the same setting: to B10 belongs 0.012 s⁻¹; to B11, 0.026 s⁻¹; to B12, 0.0015 s⁻¹.
Molecule B13 displayed a koff of 0.01 s⁻¹.
B14: the koff was 0.00092 s⁻¹.
Regarding B15, the koff stood at 0.0035 s⁻¹.
Same read-out and setting: to B16 belongs 0.008 s⁻¹; to B17, 0.00086 s⁻¹.
B18 had a koff of 0.0013 s⁻¹.
The molecule B19 gave an off-rate (koff) of 0.015 s⁻¹.
The same measure, in the same setting: to B20 belongs 0.0023 s⁻¹.
As to B21, the koff was 0.00076 s⁻¹.
Same read-out and setting: the result for B22 reads 0.0009 s⁻¹; that for B23, 0.009 s⁻¹; that for B24, 0.014 s⁻¹.
Same read-out and setting: to B25 belongs 0.003 s⁻¹; to B26, 0.0013 s⁻¹; to B27, 0.02 s⁻¹.
The same measure, in the same setting: the result for B28 reads 0.01 s⁻¹; that for B29, 0.02 s⁻¹.

The target in another assay is T1, biotinylated Aβ1-40 peptide. As to the kind of experiment: SPR, Fab over Aβ1-40 on SA chip; KD=koff/kon. The protocol: as §1, §2
For the molecule B1, the affinity, expressed as Kd, was 18.9 nM.
Still for that read-out and setting: to B2 belongs 28.3 nM.
B3 gave a Kd of 62.9 nM.
B4 registered a dissociation constant Kd of 14.2 nM.
The same measure, in the same setting: to B5 belongs 2.14 nM; to B6, 84.9 nM; to B7, 0.94 nM.
Take B8: the Kd worked out at 81.8 nM.
In turn, B9 registered a Kd of 7.55 nM.
On the same count and under the same terms, the result for B10 reads 37.7 nM; that for B11, 81.8 nM.
B12 registered a dissociation constant Kd of 4.72 nM.
In turn, B13 gave a Kd of 31.4 nM.
The same measure, in the same setting: the result for B14 reads 2.89 nM; that for B15, 11 nM; that for B16, 25.2 nM.
Turning to B17, binding was put at a Kd of 2.7 nM.
As to B18, the dissociation constant (Kd) stood at 4.09 nM.
On the same count and under the same terms, the result for B19 reads 47.2 nM.
Same read-out and setting: the result for B20 reads 7.23 nM.
Still for that read-out and setting: to B21 belongs 2.39 nM; to B22, 2.83 nM; to B23, 28.3 nM.
Take B24: the affinity, expressed as Kd, was 44 nM.
B25 had a dissociation constant Kd of 9.43 nM.
Same read-out and setting: the result for B26 reads 4.09 nM; that for B27, 62.9 nM.
As for B28, binding was characterised by a dissociation constant (Kd) of 31.4 nM.
As for B29, the affinity, expressed as Kd, was 62.9 nM.

The next assay shares this target. As to the kind of experiment: SPR, Fab over Aβ1-40 on SA chip; kon may be assumed = 9TL (footnote 2). The protocol: as §1, §2
B1 gave a kon of 318000 M⁻¹ s⁻¹.
Still for that read-out and setting: to B2 belongs 318000 M⁻¹ s⁻¹; to B3, 318000 M⁻¹ s⁻¹.
Still for that read-out and setting: to B4 belongs 318000 M⁻¹ s⁻¹; to B5, 318000 M⁻¹ s⁻¹; to B6, 318000 M⁻¹ s⁻¹.
Still for that read-out and setting: to B7 belongs 318000 M⁻¹ s⁻¹; to B8, 318000 M⁻¹ s⁻¹.
B9 gave a kon of 318000 M⁻¹ s⁻¹.
For B10, the association rate constant (kon) turned out to be 318000 M⁻¹ s⁻¹.
In the case of B11, the kon came to 318000 M⁻¹ s⁻¹.
The molecule B12 showed a kon of 318000 M⁻¹ s⁻¹.
As to B13, the kon was found to be 318000 M⁻¹ s⁻¹.
On the same count and under the same terms, the result for B14 reads 318000 M⁻¹ s⁻¹; that for B15, 318000 M⁻¹ s⁻¹.
B16 displayed a kon of 318000 M⁻¹ s⁻¹.
B17: the association rate constant (kon) came out at 318000 M⁻¹ s⁻¹.
Still for that read-out and setting: to B18 belongs 318000 M⁻¹ s⁻¹; to B19, 318000 M⁻¹ s⁻¹.
Still for that read-out and setting: the result for B20 reads 318000 M⁻¹ s⁻¹; that for B21, 318000 M⁻¹ s⁻¹; that for B22, 318000 M⁻¹ s⁻¹.
On the same count and under the same terms, the result for B23 reads 318000 M⁻¹ s⁻¹; that for B24, 318000 M⁻¹ s⁻¹; that for B25, 318000 M⁻¹ s⁻¹.
As to B26, the kon was 318000 M⁻¹ s⁻¹.
With B27, the kon stood at 318000 M⁻¹ s⁻¹.
B28 displayed a kon of 318000 M⁻¹ s⁻¹.
B29 registered a kon of 318000 M⁻¹ s⁻¹.
